Results published in US20100247515A1 (DOMANTIS, published 2010).

T1: TNFR1 on MRC-5 fibroblasts (UniProt P19438 30-455, limits assumed)
T1 sequence (looked up): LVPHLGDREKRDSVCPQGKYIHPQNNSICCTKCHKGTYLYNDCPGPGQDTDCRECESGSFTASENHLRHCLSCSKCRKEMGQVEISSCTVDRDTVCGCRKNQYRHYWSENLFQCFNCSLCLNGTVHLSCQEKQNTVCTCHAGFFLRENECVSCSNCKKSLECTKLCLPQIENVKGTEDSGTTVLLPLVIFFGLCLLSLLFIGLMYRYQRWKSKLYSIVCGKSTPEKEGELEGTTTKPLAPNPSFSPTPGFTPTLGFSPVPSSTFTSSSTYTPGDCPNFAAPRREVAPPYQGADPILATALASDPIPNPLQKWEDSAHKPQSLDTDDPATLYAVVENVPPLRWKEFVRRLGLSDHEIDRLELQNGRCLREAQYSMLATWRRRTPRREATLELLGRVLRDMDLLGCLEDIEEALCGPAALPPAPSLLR


Target: T1, TNFR1 on MRC-5 fibroblasts
Assay: cell-based or functional assay

ND50, MRC-5 cell-based assay | Binder
2.28 nM | DOM1h-131-203 (other) VH: EVQLWESGGGLVQPGGSLRLSCAASGFTFAHETMVWVRQAPGKGLEWVSHIPPDGQDPFYADSVKGRFTISRDNSKNTLYLQMNSLRAEDTAVYYCALLPKRGPWIDYWGQGTLVTVSS
1.89 nM | DOM1h-131-204 (other) VH: EVQLSESGGGLVQPGGSLRLSCAASGFTFAHETMVWVRQAPGKGLEWVSHIPPDGQDPFYADSVKGRFTISRDNSKNTLYLQMNSLRAEDTAVYYCALLPNRGPWFDYWGQGTLVTVSS
